Laboratory results: patent US20160272683A1 (Novo Nordisk, published 2016)
Numbered stars: 1 amine (or outer) side, 2 acyl side, 3 side chain; on linkers, the order of the positions; unused ones are H or OH. * marks the point of attachment. C20 diacid = O=C(O)CCCCCCCCCCCCCCCCCCC(=O)*; γGlu = O=C(O)[C@H](CCC(=O)[*:2])N[*:1]

T1: human amylin 3(a) receptor (human calcitonin receptor co-expressed with RAMP-3) (human, UniProt P30988 25-474; O60896 24-148, limits assumed)
T1 sequence (looked up) 1: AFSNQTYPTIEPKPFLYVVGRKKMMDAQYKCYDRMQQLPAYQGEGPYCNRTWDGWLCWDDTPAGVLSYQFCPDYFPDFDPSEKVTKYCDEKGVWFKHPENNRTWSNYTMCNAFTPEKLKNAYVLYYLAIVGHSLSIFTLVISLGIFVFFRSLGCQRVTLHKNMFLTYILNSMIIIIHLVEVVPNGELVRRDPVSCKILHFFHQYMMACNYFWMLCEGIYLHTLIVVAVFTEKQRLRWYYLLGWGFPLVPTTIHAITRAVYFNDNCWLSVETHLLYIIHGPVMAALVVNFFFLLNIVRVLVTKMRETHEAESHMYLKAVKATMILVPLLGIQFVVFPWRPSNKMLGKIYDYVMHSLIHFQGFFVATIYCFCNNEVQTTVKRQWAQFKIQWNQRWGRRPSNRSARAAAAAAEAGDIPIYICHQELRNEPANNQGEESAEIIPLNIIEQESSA
T1 sequence (looked up) 2: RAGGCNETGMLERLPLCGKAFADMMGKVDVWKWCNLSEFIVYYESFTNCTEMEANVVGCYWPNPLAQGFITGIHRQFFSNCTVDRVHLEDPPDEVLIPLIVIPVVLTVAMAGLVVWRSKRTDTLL

T2: human calcitonin receptor (human, UniProt P30988 25-474)
T2 sequence (looked up): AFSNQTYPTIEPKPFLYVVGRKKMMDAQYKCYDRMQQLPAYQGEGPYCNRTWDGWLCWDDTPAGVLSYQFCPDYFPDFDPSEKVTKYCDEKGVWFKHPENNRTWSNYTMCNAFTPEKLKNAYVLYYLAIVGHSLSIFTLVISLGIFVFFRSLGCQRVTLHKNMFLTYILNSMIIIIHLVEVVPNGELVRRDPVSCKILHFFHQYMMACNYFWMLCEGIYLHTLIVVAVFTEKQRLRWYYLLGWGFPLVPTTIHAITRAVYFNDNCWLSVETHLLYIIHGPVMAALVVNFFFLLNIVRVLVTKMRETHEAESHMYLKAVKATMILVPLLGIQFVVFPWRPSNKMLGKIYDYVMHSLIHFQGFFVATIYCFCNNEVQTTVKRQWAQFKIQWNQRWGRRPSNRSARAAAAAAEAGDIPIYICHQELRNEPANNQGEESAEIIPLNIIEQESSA


What was measured:
[1] = molecular target: T1, human amylin 3(a) receptor (human …); assay: cell-based or functional assay
[2] = molecular target: T2, human calcitonin receptor; assay: cell-based or functional assay

hAmylin-R funct. EC50 (pM) [1] [pM]	hCTR funct. EC50 (pM) [2] [pM]	Binder
24	28	{C20 diacid-γGlu}-LSGLSTAVLGRLSAELHELSTYPRTETGSGTY-NH2 (SMILES CC(C)C[C@H](NC(=O)CC[C@H](NC(=O)CCCCCCCCCCCCCCCCCCC(=O)O)C(=O)O)C(=O)N[C@@H](CO)C(=O)NCC(=O)N[C@@H](CC(C)C)C(=O)N[C@@H](CO)C(=O)N[C@H](C(=O)N[C@@H](C)C(=O)N[C@H](C(=O)N[C@@H](CC(C)C)C(=O)NCC(=O)N[C@@H](CCCNC(=N)N)C(=O)N[C@@H](CC(C)C)C(=O)N[C@@H](CO)C(=O)N[C@@H](C)C(=O)N[C@@H](CCC(=O)O)C(=O)N[C@@H](CC(C)C)C(=O)N[C@@H](Cc1c[nH]cn1)C(=O)N[C@@H](CCC(=O)O)C(=O)N[C@@H](CC(C)C)C(=O)N[C@@H](CO)C(=O)N[C@H](C(=O)N[C@@H](Cc1ccc(O)cc1)C(=O)N1CCC[C@H]1C(=O)N[C@@H](CCCNC(=N)N)C(=O)N[C@H](C(=O)N[C@@H](CCC(=O)O)C(=O)N[C@H](C(=O)NCC(=O)N[C@@H](CO)C(=O)NCC(=O)N[C@H](C(=O)N[C@@H](Cc1ccc(O)cc1)C(N)=O)[C@@H](C)O)[C@@H](C)O)[C@@H](C)O)[C@@H](C)O)C(C)C)[C@@H](C)O) [[N-terminal(C20 diacid-gGlu), des1, 2L, 4G, 9V, 21S, 23Y, 30S, 31G, 32T, 33Y]mimylin]
52	40	{C20 diacid-γGlu}-ASGLSTLVLGRLSQELHELQTYPRTETGSQTY-NH2 (SMILES CC(C)C[C@H](NC(=O)CNC(=O)[C@H](CO)NC(=O)[C@H](C)NC(=O)CC[C@H](NC(=O)CCCCCCCCCCCCCCCCCCC(=O)O)C(=O)O)C(=O)N[C@@H](CO)C(=O)N[C@H](C(=O)N[C@@H](CC(C)C)C(=O)N[C@H](C(=O)N[C@@H](CC(C)C)C(=O)NCC(=O)N[C@@H](CCCNC(=N)N)C(=O)N[C@@H](CC(C)C)C(=O)N[C@@H](CO)C(=O)N[C@@H](CCC(N)=O)C(=O)N[C@@H](CCC(=O)O)C(=O)N[C@@H](CC(C)C)C(=O)N[C@@H](Cc1c[nH]cn1)C(=O)N[C@@H](CCC(=O)O)C(=O)N[C@@H](CC(C)C)C(=O)N[C@@H](CCC(N)=O)C(=O)N[C@H](C(=O)N[C@@H](Cc1ccc(O)cc1)C(=O)N1CCC[C@H]1C(=O)N[C@@H](CCCNC(=N)N)C(=O)N[C@H](C(=O)N[C@@H](CCC(=O)O)C(=O)N[C@H](C(=O)NCC(=O)N[C@@H](CO)C(=O)N[C@@H](CCC(N)=O)C(=O)N[C@H](C(=O)N[C@@H](Cc1ccc(O)cc1)C(N)=O)[C@@H](C)O)[C@@H](C)O)[C@@H](C)O)[C@@H](C)O)C(C)C)[C@@H](C)O) [[N-terminal(C20 diacid-gGlu), des1, 4G, 8L, 9V, 15Q, 21Q, 23Y, 30S, 31Q, 32T, 33Y]mimylin]
40	34	{C20 diacid-γGlu}-ASGLSTATLGRLSQELHELQTYPRTETGSGTY-NH2 [[N-terminal(C20 diacid-gGlu), des1, 4G, 9T, 15Q, 21Q, 23Y, 30S, 31G, 32T, 33Y]mimylin]
70	57	{C20 diacid-γGlu}-ASGLSTAVLGRLSQELHELQTYPPTETGSQTY-NH2 (SMILES CC(C)C[C@H](NC(=O)CNC(=O)[C@H](CO)NC(=O)[C@H](C)NC(=O)CC[C@H](NC(=O)CCCCCCCCCCCCCCCCCCC(=O)O)C(=O)O)C(=O)N[C@@H](CO)C(=O)N[C@H](C(=O)N[C@@H](C)C(=O)N[C@H](C(=O)N[C@@H](CC(C)C)C(=O)NCC(=O)N[C@@H](CCCNC(=N)N)C(=O)N[C@@H](CC(C)C)C(=O)N[C@@H](CO)C(=O)N[C@@H](CCC(N)=O)C(=O)N[C@@H](CCC(=O)O)C(=O)N[C@@H](CC(C)C)C(=O)N[C@@H](Cc1c[nH]cn1)C(=O)N[C@@H](CCC(=O)O)C(=O)N[C@@H](CC(C)C)C(=O)N[C@@H](CCC(N)=O)C(=O)N[C@H](C(=O)N[C@@H](Cc1ccc(O)cc1)C(=O)N1CCC[C@H]1C(=O)N1CCC[C@H]1C(=O)N[C@H](C(=O)N[C@@H](CCC(=O)O)C(=O)N[C@H](C(=O)NCC(=O)N[C@@H](CO)C(=O)N[C@@H](CCC(N)=O)C(=O)N[C@H](C(=O)N[C@@H](Cc1ccc(O)cc1)C(N)=O)[C@@H](C)O)[C@@H](C)O)[C@@H](C)O)[C@@H](C)O)C(C)C)[C@@H](C)O) [[N-terminal(C20 diacid-gGlu), des1, 4G, 9V, 15Q, 21Q, 23Y, 25P, 30S, 31Q, 32T, 33Y]mimylin]
